# Measured values reported in paper PMC7868722.
# Target: human alpha-thrombin (plasma) (Homo sapiens, UniProt P00734;P00734 328-363;364-622)
# Assay: MST
row,Binder,Kd [nM]
1,"GGTTGGTGTGGTTGG (structured_DNA, T3: N3-aminoalkyl-dT nicotinoyl amide) [3Nic]",27.1 ± 4.2
2,"GGTTGGTGTGGTTGG (structured_DNA, T12: N3-carboxymethyl-dT amide with L-phenylalanine) [12Phe]",99.1 ± 6.3
3,"GGTTGGTGTGGTTGG (structured_DNA, T3: N3-carboxymethyl-dT amide with L-alanine) [3Ala]",21.4 ± 2.8
4,"GGTTGGTGTGGTTGG (structured_DNA, T12: N3-carboxymethyl-dT amide with L-serine) [12Ser]",86.6 ± 4.5
5,"GGTTGGTGTGGTTGG (structured_DNA, T3: N3-carboxymethyl-dT amide with L-leucine) [3Leu]",10.9 ± 0.2
6,"GGTTGGTGTGGTTGG (structured_DNA, T12: N3-carboxymethyl-dT amide with L-leucine) [12Leu]",72.2 ± 0.9
7,"GGTTGGTGTGGTTGG (structured_DNA, T3: N3-aminoalkyl-dT p-nitrobenzoyl amide) [3NB]",164 ± 3.5
8,"GGTTGGTGTGGTTGG (structured_DNA, T12: N3-propargyl-dT clicked to 1-beta-D-glucopyranosyl azide (printed glycopyranosyl)) [12G]",20.7 ± 2.8
9,"GGTTGGTGTGGTTGG (structured_DNA, T3: N3-carboxymethyl-dT amide) [3Amide]",29.2 ± 0.4
10,"GGTTGGTGTGGTTGG (structured_DNA, T12: N3-carboxymethyl-dT amide) [12Amide]",30.6 ± 6.1
11,"GGTTGGTGTGGTTGG (structured_DNA, T12: N3-carboxymethyl-dT amide with L-tryptophan) [12Trp]",67.3 ± 12.1
12,"GGTTGGTGTGGTTGG (structured_DNA, T3: N3-propargyl-dT clicked to 1-beta-D-glucopyranosyl azide (printed glycopyranosyl)) [3G]",9.8 ± 0.6
13,GGTTGGTGTGGTTGG (structured_DNA) [TBA (HD1)],20.2 ± 1.3
14,"GGTTGGTGTGGTTGG (structured_DNA, T3: N3-aminoalkyl-dT benzoyl amide) [3Bz]",30 ± 6.6
15,"GGTTGGTGTGGTTGG (structured_DNA, T12: N3-propargyl-dT clicked to 1-beta-D-lactopyranosyl azide) [12L]",27.2 ± 3
16,"GGTTGGTGTGGTTGG (structured_DNA, T3: N3-carboxymethyl-dT amide with L-serine) [3Ser]",14.6 ± 0.3
17,"GGTTGGTGTGGTTGG (structured_DNA, T3: N3-carboxymethyl-dT amide with L-phenylalanine) [3Phe]",22.6 ± 4.8
18,"GGTTGGTGTGGTTGG (structured_DNA, T3: N3-propargyl-dT clicked to 1-beta-D-lactopyranosyl azide) [3L]",11.6 ± 0.5
19,"GGTTGGTGTGGTTGG (structured_DNA, T12: N3-carboxymethyl-dT amide with L-alanine) [12Ala]",51 ± 3.8
